These are literature values, as cited in paper PMC5302535.

pKd: −log10 of the molar value.

This data set addresses transferrin receptor (TfR) (Homo sapiens) (UniProt P02786).

Chain of transferrin receptor (TfR) (Homo sapiens) (P02786 89-760): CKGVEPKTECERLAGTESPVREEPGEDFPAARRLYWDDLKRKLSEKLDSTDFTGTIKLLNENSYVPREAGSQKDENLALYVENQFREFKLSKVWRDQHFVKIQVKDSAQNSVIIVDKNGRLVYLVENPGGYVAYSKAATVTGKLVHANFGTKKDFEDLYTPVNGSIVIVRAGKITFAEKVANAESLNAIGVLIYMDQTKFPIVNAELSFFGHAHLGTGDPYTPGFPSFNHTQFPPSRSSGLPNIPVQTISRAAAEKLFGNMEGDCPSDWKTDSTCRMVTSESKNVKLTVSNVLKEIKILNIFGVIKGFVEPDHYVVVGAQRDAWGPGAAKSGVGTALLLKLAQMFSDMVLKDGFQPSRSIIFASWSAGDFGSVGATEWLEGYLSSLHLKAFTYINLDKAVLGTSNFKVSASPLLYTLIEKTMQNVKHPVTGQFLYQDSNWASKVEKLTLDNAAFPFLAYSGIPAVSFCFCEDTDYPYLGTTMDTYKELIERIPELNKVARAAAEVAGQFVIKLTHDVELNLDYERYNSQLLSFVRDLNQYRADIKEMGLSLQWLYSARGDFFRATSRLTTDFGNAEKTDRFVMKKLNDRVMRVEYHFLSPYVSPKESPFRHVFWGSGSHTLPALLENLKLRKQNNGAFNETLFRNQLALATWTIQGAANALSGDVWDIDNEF

The term pKd denotes −log10 of the Kd, conventionally taken in molar units. In the case of T7 peptide, the negative logarithm of the Kd (pKd) was 8.00.
